Two molecules from patent US20260234242A1 (HAINAN SIMCERE ZAIMING PHARMACEUTICAL, published 2026) can be followed below.

Experiment [1] addresses T1, human CDH6 with EC3 removed, on HEK293T cells (HEK293T-hCDH6-EC3 deletion) (human, UniProt P55285 54-790).
T1 construct: Signal peptide not removed here
T1 sequence: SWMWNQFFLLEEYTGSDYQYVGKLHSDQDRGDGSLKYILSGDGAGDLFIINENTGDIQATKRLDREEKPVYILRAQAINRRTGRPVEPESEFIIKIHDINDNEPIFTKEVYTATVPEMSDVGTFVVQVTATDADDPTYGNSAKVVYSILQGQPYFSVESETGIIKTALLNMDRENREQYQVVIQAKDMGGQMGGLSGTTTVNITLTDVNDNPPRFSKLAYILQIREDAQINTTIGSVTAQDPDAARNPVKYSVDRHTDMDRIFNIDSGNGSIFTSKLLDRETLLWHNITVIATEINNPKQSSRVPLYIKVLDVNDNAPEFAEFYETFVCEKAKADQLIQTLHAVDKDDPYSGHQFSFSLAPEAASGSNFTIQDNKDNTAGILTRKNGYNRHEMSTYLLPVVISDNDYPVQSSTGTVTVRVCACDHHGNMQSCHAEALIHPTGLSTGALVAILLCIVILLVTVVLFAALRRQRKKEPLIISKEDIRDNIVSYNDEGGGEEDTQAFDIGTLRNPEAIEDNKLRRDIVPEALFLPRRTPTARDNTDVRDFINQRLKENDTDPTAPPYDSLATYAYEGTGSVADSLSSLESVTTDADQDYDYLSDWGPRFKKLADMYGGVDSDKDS
Put plainly: FACS, HEK293T-hCDH6-EC3 deletion cells. (Flow cytometry measures light scatter and fluorescence of single cells or particles in a stream.)

Experiment [2] has as its target T2, human CDH6 on tumor cells (OVCAR3 cells, PA-1 cells) (human, UniProt P55285 54-790).
T2 sequence: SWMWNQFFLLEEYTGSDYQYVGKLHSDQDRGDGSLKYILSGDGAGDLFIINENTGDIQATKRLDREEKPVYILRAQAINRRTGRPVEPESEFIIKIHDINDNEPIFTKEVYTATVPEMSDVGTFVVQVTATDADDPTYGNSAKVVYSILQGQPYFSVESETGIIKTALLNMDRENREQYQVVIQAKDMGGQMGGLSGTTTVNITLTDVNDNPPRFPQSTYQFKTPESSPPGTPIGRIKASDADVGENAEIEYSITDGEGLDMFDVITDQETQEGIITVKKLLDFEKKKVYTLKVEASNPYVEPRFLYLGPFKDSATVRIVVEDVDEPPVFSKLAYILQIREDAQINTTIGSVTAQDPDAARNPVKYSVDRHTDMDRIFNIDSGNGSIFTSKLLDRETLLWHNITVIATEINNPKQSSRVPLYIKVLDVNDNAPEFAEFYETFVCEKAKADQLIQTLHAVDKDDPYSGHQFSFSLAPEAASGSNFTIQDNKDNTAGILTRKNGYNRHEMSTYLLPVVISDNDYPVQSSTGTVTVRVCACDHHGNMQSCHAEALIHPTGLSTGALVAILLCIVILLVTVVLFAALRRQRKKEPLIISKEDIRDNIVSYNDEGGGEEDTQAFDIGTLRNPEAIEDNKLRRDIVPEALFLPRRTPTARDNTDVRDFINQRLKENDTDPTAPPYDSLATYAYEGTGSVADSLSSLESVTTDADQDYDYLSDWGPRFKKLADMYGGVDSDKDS
Put plainly: FACS, PA-1 cells. In outline: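 Chimeric or humanized hCDH6-14 antibody dilutions were incubated with PA-1 cells (moderate CDH6 expressors; OVCAR3 as high expressors) in PBS + 2% FBS for 1 h at 4 °C. A second 1 h step at 4 °C followed. Flow-cytometric MFI was curve-fitted to give EC50.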

The target in experiment [3] is T3, his-tagged human CDH6 extracellular region protein (hCDH6 ECD-his) (human, UniProt P55285 19-615).
T3 construct: also called Human CDH6-his; hCDH6-his; not shown: his tag
T3 sequence: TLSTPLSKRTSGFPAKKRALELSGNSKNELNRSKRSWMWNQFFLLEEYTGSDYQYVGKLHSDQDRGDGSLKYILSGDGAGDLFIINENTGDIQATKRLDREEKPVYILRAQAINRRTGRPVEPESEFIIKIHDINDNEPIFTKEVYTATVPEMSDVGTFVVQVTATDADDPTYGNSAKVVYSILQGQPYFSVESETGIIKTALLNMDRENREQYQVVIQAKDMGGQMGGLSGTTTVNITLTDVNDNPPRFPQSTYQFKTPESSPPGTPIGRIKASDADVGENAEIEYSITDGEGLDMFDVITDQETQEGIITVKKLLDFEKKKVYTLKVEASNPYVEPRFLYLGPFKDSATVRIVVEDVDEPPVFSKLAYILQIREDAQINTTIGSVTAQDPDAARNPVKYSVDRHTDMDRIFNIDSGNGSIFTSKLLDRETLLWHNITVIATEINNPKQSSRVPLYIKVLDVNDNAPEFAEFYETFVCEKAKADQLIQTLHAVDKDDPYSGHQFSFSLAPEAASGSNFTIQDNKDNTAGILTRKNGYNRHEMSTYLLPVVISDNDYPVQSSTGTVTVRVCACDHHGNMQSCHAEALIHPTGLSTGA
The experiment can be described thus: ELISA, coated antigen; ELISA, coated hCDH6-his; later run beside the hCDH6-14 humanized antibodies (Table 19). (In an ELISA, binding on a coated surface is turned into a signal by an enzyme label.)

B1: CHI-CDH6-12 (antibody, human IgG1, kappa, V domains shown)
VH: EVNLVESGGGLVQPGDSLTLSCSASGFTFTDYYMSWVRQFPGKALEWLALIRNKANSYTTEYSASVKGRFTISRDNSQSILYLQMNALRAEDSATYYCARDSYYSHDGFAYWGQGTLVTVSA
VL: DIVLTQSPASLAVSLGQRATISCRASKSVSTSSYTYMHWYQQKPGQPPKLLIKFASYLESGVPARFSGSGSGTDFTLNIHPVEEEDAATYYCQHSREFPFTFGTGTKLEIKR
notes: also called CH1-CDH6-12; chimeric antibody of murine CDH6-12
For B1, the binding result in experiment [1] was “no binding”.

B2: CHI-CDH6-14 (antibody, human IgG1, kappa, V domains shown)
VH: QIQLQQSGPELVKPGTSVKISCKASGYTFTDNYINWVRQRPGQGLEWIGWIYPGTGNSYYNEKFKGKATLTVDTSSSTAYMQFSSLTSEDSAVYLCASSYGDSFDYWGQGTTLTVSS
VL: DIQMTQTTSSLSASLGNRVTISCRASQDIRNYLNWYQQKPDGTFKLLISYTSRLHSGVPSRFSGSGSGTDYSLTVSNLEPEDIATYYCQQYSQLPWTFGGGSRLEIKR
notes: also called CHI-hCDH6-14; CH1-CDH6-14
Take B2: in experiment [2], the EC50 (in general, the concentration that produces a half-maximal response) is 0.27 nM and the “Max MFI” value amounted to 4260 MFI. In experiment [3], this molecule yielded an EC50 of 0.034 nM.
